In patent US7642400B2, “Protein kinase C iota” (Mayo Foundation for Medical Education and Research, priority 2004, dated 2010):

T1: interaction of PKCι polypeptides with PAR6 polypeptides (Homo sapiens, UniProt P41743)
T1 construct: amino acids 1-113 or a full-length PKCι polypeptide; 6xHis; made in house
T1 sequence (P41743 10-122): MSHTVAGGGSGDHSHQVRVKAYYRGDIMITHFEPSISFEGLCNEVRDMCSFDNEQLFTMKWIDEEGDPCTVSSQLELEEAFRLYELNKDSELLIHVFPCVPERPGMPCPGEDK

B1: PKCι(1-113): first 113 amino acids of PKCι, encompassing the PB1 domain, expressed in cells from a plasmid (protein)
chain: MPTQRDSSTMSHTVAGGGSGDHSHQVRVKAYYRGDIMITHFEPSISFEGLCNEVRDMCSFDNEQLFTMKWIDEEGDPCTVSSQLELEEAFRLYELNKDSELLIHVFPCVPERP

Legend:
[1] = target: T1, interaction of PKCι polypeptides with PAR6 polypeptides; assay: Primary screen: FRET assay of PKCι113-YFP-N1 (PYN) and PAR6125-CFP-C1; details: FIG. 18; less binding as concentration increased
Description: A primary screen was performed as follows to identify test compound having the potential to inhibit the interaction of PKCι polypeptides with PAR6 polypeptides. Bacterially expressed PKCι113-YFP-N1 (PYN) was isolated from the soluble fraction of bacterial lysates by affinity purification according to the manufacturer's protocol (B-PER 6×His Purification Kit; Pierce). The purified polypeptide was dialyzed against Tris buffer (50 mM Tris, pH 8.0; 135 mM NaCl; 10% glycerol; 0.002% EDTA) containing 2 M urea. PAR6125-CFP-C1 recombinant polypeptide was isolated from the inclusion body pellets of bacterial lysates using the B-PER reagent (Pierce) according to the manufacturer's protocol. […] Yields were measured by fluorescence in a SpectraMax Gemini microplate reader (Molecular Devices).
To perform the assay, PYN was diluted to 4000 relative fluorescent units/50 μl in Tris buffer plus 1 M urea, and PAR6125-CFP-C1 was diluted to 400 relative fluorescent units/50 μl Tris buffer plus 1 M urea. […] Fluorescence was measured in a SpectraMax Gemini plate reader. Cyan fluorescence was measured at excitation 395 nm, emission 475 nm, and cutoff of 455 nm. Yellow fluorescence was measured at excitation 395 nm, emission 529, and cutoff of 515=n. […]

[2] = target: T1, interaction of PKCι polypeptides with PAR6 polypeptides; assay: Secondary screen: PYN bound to plate-immobilised biotin-tagged PAR6; assay type: binding; details: increasing amounts, e.g. 0, 0.1, 1, 10, 100, and 100 μM
Description: Multiple test compounds that were classified as hits in the primary screen as well as additional related compounds were evaluated in a secondary screen designed as follows. Briefly, a 96-well microtiter plate coated with streptavidin (Nunc #436014) was incubated for 2-4 hours at room temperature with 100 μl of a 20-30 μg/ml solution of biotin-tagged PAR6 (whole polypeptide) in phosphate-buffered saline containing Tween-20 (PBST). Plates were washed twice with PBST, then once with incubation buffer (50 mM Tris, pH 8.0; 135 mM NaCl; 10% glycerol; 0.002% EDTA). Incubation buffer (50 μl) was added to each well. The compounds to be tested were added (10 μl) followed by PYN (50 μl) diluted in incubation buffer to an approximate concentration of 4000-5000 relative fluorescent units per 50 μl. Plates were incubated overnight at 4° C. Plates were washed twice with incubation buffer, after which 50 μl incubation buffer was added to retain moisture in the wells. The amount of PYN bound on the plates was determined by measuring yellow fluorescence (532/526) in a Typhoon imager. Fluorescence was quantitated by Softmax Pro software.
A dose-response analysis was performed using the secondary screening assay and increasing amounts (e.g., 0, 0.1, 1, 10, 100, and […]) of gossypol, hexestrol, thimerosal, ebselen, ATG, ATM, ellagic acid, cisplatin, apomorphine, or phenylmercuric acetate.

[3] = system: Rac1 activity in A549 cells; assay: Rac1 activity assay (affinity isolation of GTP-bound Rac1) in A549 cells; assay type: cell-based, human; details: A549 cells treated with PSI or stably expressing PKCι(1-113); FIG. 12E
Description: Rac 1 Activity Assays: Rac1 activity in A549 and H1299 cell transfectants was assessed by affinity isolation of GTP-bound Rac1 using binding domains of PAK as described previously (Sander et al., J. Cell Biol., 143(5):1385-98 (1998)). Briefly, cells were lysed in lysis buffer (50 mM Tris-HCl pH 7.5, 150 mM NaCl, 20 mM MgCl2, 5 mM EGTA, 10% glycerol, 1% Triton X-100, 1% NP-40, 25 mM NaF, 1 mM phenylmethylsulfonyl fluoride, 1 mM sodium orthovanadate, 10 μg/ml leupeptin, 10 μg/ml aprotinin) at 4° C. for 5 min. Cellular debris was removed by centrifugation at 20,000×g for 5 min, and supernatants were transferred to new tubes containing 20 μl of GST-p21-binding domain of PAK1 (PAK1-PBD) coupled to agarose beads (Upstate). An aliquot of each supernatant was reserved to determine total Rac1 and actin expression by immunoblot analysis. Following a 30-minute incubation at 4° C., the agarose beads were collected by centrifugation and washed three times in wash buffer (50 mM Tris-HCl pH 7.5, 150 mM NaCl, 20 mM MgCl2, 5 mM EGTA, 10% glycerol, 1% Triton X-100, 1% NP-40, 25 mM NaF, 1 mM phenylmethylsulfonyl fluoride, 1 mM sodium orthovanadate, 10 μg/ml leupeptin, 10 μg/ml aprotinin). Bound polypeptides were solubilized by the addition of 30 μl of SDS sample buffer, resolved by SDS-PAGE, and subjected to immunoblot analysis for Rac1. An equivalent aliquot of the total cell lysate was subjected to immunoblot analysis to determine total Rac1 expression.
Rac 1 Activity Assays: A549 cells were incubated with the indicated concentration of ATG for one hour prior to analysis. Rac1 activity in A549 cells was assessed by affinity isolation of GTP-bound Rac1 using binding domains of PAK as described elsewhere (Sander et al., J. Cell Biol., 143:1385-98 (1998)). Briefly, cells were lysed in lysis buffer (50 mM Tris-HCl pH 7.5, 150 mM NaCl, 20 mM MgCl2, 5 mM EGTA, 10% glycerol, 1% Triton X-100, 1% NP-40, 25 mM NaF, 1 mM phenylmethylsulfonyl fluoride, 1 mM sodium orthovanadate, 10 μg/ml leupeptin, and 10 μg/ml aprotinin) at 4° C. for 5 min. […]

A549 cells [4] = assay: Soft agar growth assay (anchorage-independent growth) of A549 cells; assay type: cell-based, human; details: A549 cells expressing PKCι(1-113) versus A549/LZRS; FIG. 12G
Description: (§1) Anchorage-independent growth was assayed by the ability of cells to form colonies in soft agar. The bottom agar consisted of growth medium containing 10% FBS and 0.75% agarose in 60-mm tissue culture dishes. Nine hundred cells were resuspended in growth medium containing 10% FBS and 0.75% agarose, and plated on top of the bottom agar. The cells were incubated at 37° C. in 5% CO2. Cell colonies were visualized and quantified under a dissecting microscope (Olympus) after 4-6 weeks in culture.
as §1, with “Soft Agar Growth Assays: Anchorage-independent growth” for “Anchorage-independent growth”, “and 0.75% agarose and plated” for “and 0.75% agarose, and plated”, “bottom agar. ATG was added at the indicated concentration to both bottom and top agar solutions. The cells” for “bottom agar. The cells”

A549 cells [5] = assay: Cell invasion through Matrigel-coated chambers, A549 transfectants; assay type: cell-based, human; details: A549 cells expressing PKCι(1-113) versus A549/LZRS; FIG. 12F
Description: Cell Invasion and Soft Agar Growth Assays: A549 and H1299 transfectants were assayed for cell invasion using Matrigel-coated Transwell cell culture chambers (6,5-mm diameter, 8-μm pore size; BD Biosciences). A549 and H1299 cell transfectants in logarithmic growth phase were harvested with trypsin, the trypsin neutralized with serum-containing medium, and the cells pelleted and resuspended in serum-free growth medium. 2.5×10^4 cells were placed into the upper chamber of the Transwell insert, and growth medium containing 10% FBS was added to the lower chamber. After 22 hours at 37° C. in 5% CO2, non-invasive cells in the upper chambers were removed and invasive cells were fixed in 100% methanol and stained with 0.5% crystal violet (Sigma) in 2% ethanol. Cells which had invaded through the Matrigel-coated filter were counted on a microscope (X40, Olympus) using a calibrated ocular grid.

RIE/Ras cells = assay: Soft agar colony formation of RIE/Ras cells; assay type: cell-based, rat; details: RIE/Ras/PKCι(1-113) versus RIE/Ras cells; FIG. 9
Excerpt: To assess anchorage-independent growth, RIE cell transfectants were suspended in DMEM supplemented with 10% FBS, 1.5% agarose, and a 1% insulin, transferrin and selenium solution (Sigma-Aldrich), and plated (300 cells/60 mm dish) on a layer of 1.5% agar containing the same medium. Cell colonies were fixed with 20% methanol and stained with Giemsa after 7-14 days in culture and quantified under a dissecting microscope.

| Molecule | dose-response in the FRET assay: relative binding of PKCι and PAR6 polypeptides [1] | dose-response analysis using the secondary screening assay [2] | Rac1 activity [3] | anchorage-independent growth in soft agar (A549 cells [4]) | A549 cell invasion (A549 cells [5]) | soft agar colony formation (RIE/Ras cells) |
| --- | --- | --- | --- | --- | --- | --- |
| O=C(O)CC([S-])C(=O)O.[Au+] (stereo not drawn) [ATM, aurothiomaleate] | dose-dependent effect | dose-dependent response was detected | – | – | – | – |
| B1 | – | – | inhibits Rac1 activity | inhibits | inhibits | significantly less soft agar colony formation |
